Consider 8 molecules from patent publication US20240279325A1 (Chugai, published 2024).

The target in one test is T1, mouse FcγRIV (mouse, UniProt A0A0B4J1G0 21-203).
T1 construct: also called mFcγRIV; not shown: purification tag of the soluble receptor (probably a His tag)
T1 sequence: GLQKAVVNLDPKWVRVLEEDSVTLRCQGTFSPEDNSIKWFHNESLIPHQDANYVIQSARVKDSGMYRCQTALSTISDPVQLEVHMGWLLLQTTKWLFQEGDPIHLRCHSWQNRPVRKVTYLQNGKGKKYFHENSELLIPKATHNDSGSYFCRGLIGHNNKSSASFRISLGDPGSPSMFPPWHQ
The experiment in a line: SPR (Biacore), method of Reference Example 2.

In another test the target is T2, mouse FcγRI (mouse, UniProt P26151 25-297).
T2 construct: extracellular domain; also called mFcγRI
T2 sequence (looked up): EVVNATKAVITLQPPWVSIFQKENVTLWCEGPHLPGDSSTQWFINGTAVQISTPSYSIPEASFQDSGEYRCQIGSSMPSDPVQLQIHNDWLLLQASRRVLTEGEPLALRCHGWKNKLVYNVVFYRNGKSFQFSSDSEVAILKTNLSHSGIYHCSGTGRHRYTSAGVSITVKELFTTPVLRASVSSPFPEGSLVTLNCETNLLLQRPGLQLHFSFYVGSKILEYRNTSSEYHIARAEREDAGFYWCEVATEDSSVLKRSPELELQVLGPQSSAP
The experiment in a line: SPR (Biacore), method of Reference Example 2.

In test [1] the target is T3, human FcγRIIa type H (allotype H131) extracellular domain with C-terminal His tag (human, UniProt P12318 34-217).
T3 construct: also called FcγRIIaH
T3 sequence: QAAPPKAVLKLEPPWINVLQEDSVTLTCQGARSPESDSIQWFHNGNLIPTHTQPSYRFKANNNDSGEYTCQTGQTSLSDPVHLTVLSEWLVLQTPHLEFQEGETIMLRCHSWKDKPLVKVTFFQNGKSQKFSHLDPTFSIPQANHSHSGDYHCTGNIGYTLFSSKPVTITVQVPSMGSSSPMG
The test is described as follows: SPR (Biacore), captured antibody, FcγR analyte.

In test [2] the target is T4, FcγRIIb extracellular domain with C-terminal His tag (human, UniProt P31994 43-217).
T4 construct: extracellular domain
T4 sequence (looked up): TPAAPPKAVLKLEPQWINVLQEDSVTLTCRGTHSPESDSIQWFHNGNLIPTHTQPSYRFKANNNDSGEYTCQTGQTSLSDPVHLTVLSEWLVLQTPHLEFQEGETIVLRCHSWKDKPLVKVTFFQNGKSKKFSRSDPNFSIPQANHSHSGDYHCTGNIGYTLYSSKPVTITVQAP
The test is described as follows: SPR; KD for FcγRIIaH divided by KD for FcγRIIb.

The target in test [3] is T4, FcγRIIb extracellular domain with …. The experiment in a line: SPR; KD for FcγRIIaR divided by KD for FcγRIIb.
Test [4] deals with T5, FcγRIIa type H (allotype H131) extracellular domain with C-terminal His tag (human, UniProt P12318 34-217).
T5 construct: extracellular domain; also called FcγRIIaH; FcγRIIa H type
T5 sequence (looked up): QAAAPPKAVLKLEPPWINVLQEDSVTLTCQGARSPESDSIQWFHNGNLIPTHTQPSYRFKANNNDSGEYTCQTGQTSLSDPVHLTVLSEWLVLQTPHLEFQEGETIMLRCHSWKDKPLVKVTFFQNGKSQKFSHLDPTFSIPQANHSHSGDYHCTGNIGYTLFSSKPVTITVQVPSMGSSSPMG
The experiment in a line: SPR (Biacore), antibody captured, FcγR as analyte.

In test [5] the target is T4, FcγRIIb extracellular domain with …. The experiment in a line: SPR; KD of IL6R-B3/IL6R-L divided by KD of the variant.
Test [6] deals with T6, FcγRIIa type R (allotype R131) extracellular domain with C-terminal His tag (human, UniProt P12318 34-217).
T6 construct: extracellular domain; also called FcγRIIaR; FcγRIIa R type
T6 sequence (looked up): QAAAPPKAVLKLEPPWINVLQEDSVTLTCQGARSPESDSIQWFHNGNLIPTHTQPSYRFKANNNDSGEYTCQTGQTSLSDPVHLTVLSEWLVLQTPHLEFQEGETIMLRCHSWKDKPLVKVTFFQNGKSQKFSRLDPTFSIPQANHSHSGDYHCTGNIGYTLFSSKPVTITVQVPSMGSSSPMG
The test is described as above.

B1: VH3/L(WT)-mIgG1-mF44 (antibody)
heavy: QVQLQESGPGLVKPSETLSLTCAVSGHSISHDHAWSWVRQPPGEGLEWIGFISYSGITNYNPSLQGRVTISRDNSKNTLYLQMNSLRAEDTAVYYCARSLARTTAMDYWGEGTLVTVSSAKTTPPSVYPLAPGSAAQTNSMVTLGCLVKGYFPEPVTVTWNSGSLSSGVHTFPAVLQSDLYTLSSSVTVPSSTWPSETVTCNVAHPASSTKVDKKIVPRDCGCKPCICTVPEVSSVFIFPPKPKDVLTITLTPKVTCVVVDISKDDPEVQFSWFVDDVEVHTAQTQPREEQFNSTFRSVSELPIMHQDWLNGKEFKCRVNSADFPAPIEKTISKTKGRPKAPQVYTIPPPKEQMAKDKVSLTCMITDFFPEDITVEWQWNGQPAENYKNTQPIMDTDGSYFVYSKLNVQKSNWEAGNTFTCSVLHEGLHNHHTEKSLSHSPGK
light: not shown
notes: copies: 2 + 2
Turning to B1, the binding result in the test with mouse FcγRIV and with mouse FcγRI was “no binding” throughout.

B2: VH3/L(WT)-mIgG1 (antibody)
heavy: QVQLQESGPGLVKPSETLSLTCAVSGHSISHDHAWSWVRQPPGEGLEWIGFISYSGITNYNPSLQGRVTISRDNSKNTLYLQMNSLRAEDTAVYYCARSLARTTAMDYWGEGTLVTVSSAKTTPPSVYPLAPGSAAQTNSMVTLGCLVKGYFPEPVTVTWNSGSLSSGVHTFPAVLQSDLYTLSSSVTVPSSTWPSETVTCNVAHPASSTKVDKKIVPRDCGCKPCICTVPEVSSVFIFPPKPKDVLTITLTPKVTCVVVDISKDDPEVQFSWFVDDVEVHTAQTQPREEQFNSTFRSVSELPIMHQDWLNGKEFKCRVNSAAFPAPIEKTISKTKGRPKAPQVYTIPPPKEQMAKDKVSLTCMITDFFPEDITVEWQWNGQPAENYKNTQPIMDTDGSYFVYSKLNVQKSNWEAGNTFTCSVLHEGLHNHHTEKSLSHSPGK
light: not shown
notes: mouse IgG1 constant region; copies: 2 + 2
Take B2: the binding result with mouse FcγRIV and with mouse FcγRI was “no binding” throughout.

B3: VH3/L(WT)-mIgG1-mF46 (antibody)
heavy: QVQLQESGPGLVKPSETLSLTCAVSGHSISHDHAWSWVRQPPGEGLEWIGFISYSGITNYNPSLQGRVTISRDNSKNTLYLQMNSLRAEDTAVYYCARSLARTTAMDYWGEGTLVTVSSAKTTPPSVYPLAPGSAAQTNSMVTLGCLVKGYFPEPVTVTWNSGSLSSGVHTFPAVLQSDLYTLSSSVTVPSSTWPSETVTCNVAHPASSTKVDKKIVPRDCGCKPCICTVPEVSDVFIFPPKPKDVLTITLTPKVTCVVVDISKDDPEVQFSWFVDDVEVHTAQTQPREEQFNSTFRSVSELPIMHQDWLNGKEFKCRVNSADFPAPIEKTISKTKGRPKAPQVYTIPPPKEQMAKDKVSLTCMITDFFPEDITVEWQWNGQPAENYKNTQPIMDTDGSYFVYSKLNVQKSNWEAGNTFTCSVLHEGLHNHHTEKSLSHSPGK
light: not shown
notes: copies: 2 + 2
On to B3, for which the binding result with mouse FcγRIV and in the test with mouse FcγRI was “no binding” each time.

B4: IL6R-BP447/IL6R-L (antibody, human IgG1, kappa, name in EU numbering)
heavy: QVQLQESGPGLVKPSETLSLTCAVSGHSISHDHAWSWVRQPPGEGLEWIGFISYSGITNYNPSLQGRVTISRDNSKNTLYLQMNSLRAEDTAVYYCARSLARTTAMDYWGEGTLVTVSSASTKGPSVFPLAPSSKSTSGGTAALGCLVKDYFPEPVTVSWNSGALTSGVHTFPAVLQSSGLYSLSSVVTVPSSSLGTQTYICNVNHKPSNTKVDKKVEPKSCDKTHTCPPCPAPDLLGDDSVFLFPPKPKDTLMISRTPEVTCVVVDVAEEDGEVKFNWYVDGVEVHNAKTKPREEQYNSTYRVVSVLTVLHQDWLNGKEYKCKVSNKALPRPIEKTISKAKGQPREPQVYTLPPSRDELTKNQVSLTCLVKGFYPSDIAVEWESNGQPENNYKTTPAVLDSDGSFFLYSKLTVDKSRWQQGNVFSCSVMHEALHNHYTQESLSLSP
light: not shown
notes: copies: 2 + 2
For the molecule B4, in test [1], the affinity, expressed as Kd, was 2000 nM.

B5: IL6R-BP451/IL6R-L (antibody, human IgG1, kappa, name in EU numbering)
heavy: QVQLQESGPGLVKPSETLSLTCAVSGHSISHDHAWSWVRQPPGEGLEWIGFISYSGITNYNPSLQGRVTISRDNSKNTLYLQMNSLRAEDTAVYYCARSLARTTAMDYWGEGTLVTVSSASTKGPSVFPLAPSSKSTSGGTAALGCLVKDYFPEPVTVSWNSGALTSGVHTFPAVLQSSGLYSLSSVVTVPSSSLGTQTYICNVNHKPSNTKVDKKVEPKSCDKTHTCPPCPAPDLLGDDSVFLFPPKPKDTLMISRTPEVTCVVVDVAEEDGEVKFNWYVDGVEVHNAKTKPREEQYNSTYRVVSVLTVLHQDWLNGKEYKCKVSNKALPRPIEKTISKAKGQPREPQVYTLPPSRDELTKNQVSLTCLVKGFYPSDIAVEWESNGQPENNYKTTPGVLDSDGSFFLYSKLTVDKSRWQQGNVFSCSVMHEALHNHYTQESLSLSP
light: not shown
notes: copies: 2 + 2
Take B5: the affinity in test [1], expressed as Kd, was 2000 nM.

B6: IL6R-BP488/IL6R-L (antibody, human IgG1, kappa, name in EU numbering)
heavy: QVQLQESGPGLVKPSETLSLTCAVSGHSISHDHAWSWVRQPPGEGLEWIGFISYSGITNYNPSLQGRVTISRDNSKNTLYLQMNSLRAEDTAVYYCARSLARTTAMDYWGEGTLVTVSSASTKGPSVFPLAPSSKSTSGGTAALGCLVKDYFPEPVTVSWNSGALTSGVHTFPAVLQSSGLYSLSSVVTVPSSSLGTQTYICNVNHKPSNTKVDKKVEPKSCDKTHTCPPCPAPDLLGDDSVFLFPPKPKDTLMISRTPEVTCVVIDVAEEDGEVKFNWYVDGVEVHNAKTKPREEQDNSTYRVVSVLTVLHQDWLNGKEYKCKVSNKALPRPIEKTISKAKGQPREPQVYTLPPSRDELTKNQVSLTCLVKGFYPSDIAVEWESNGQPENNYKTTPPVLDSDGSFFLYSKLTVDKSRWQQGNVFSCSVMHEALHNHYTQESLSLSP
light: not shown
notes: copies: 2 + 2
Take B6: in test [2], the “KD(IIaH)/KD(IIb)” value turned out to be 865. For the same molecule, the “KD(IIaR)/KD(IIb)” value in test [3] stood at 40.1. Also, binding in test [4] was put at a Kd of 1500 nM. Besides, the “KD(IIb) OF PARENT POLYPEPTIDE/KD(IIb) OF ALTERED POLYPEPTIDE” value in test [5] stood at 1680. Moreover, the “KD(IIaR) OF PARENT POLYPEPTIDE/KD(IIaR) OF ALTERED POLYPEPTIDE” value in test [6] was found to be 14.8.

B7: IL6R-BP456/IL6R-L (antibody, human IgG1, kappa, name in EU numbering)
heavy: QVQLQESGPGLVKPSETLSLTCAVSGHSISHDHAWSWVRQPPGEGLEWIGFISYSGITNYNPSLQGRVTISRDNSKNTLYLQMNSLRAEDTAVYYCARSLARTTAMDYWGEGTLVTVSSASTKGPSVFPLAPSSKSTSGGTAALGCLVKDYFPEPVTVSWNSGALTSGVHTFPAVLQSSGLYSLSSVVTVPSSSLGTQTYICNVNHKPSNTKVDKKVEPKSCDKTHTCPPCPAPDLLGDDSVFLFPPKPKDTLMISRTPEVTCVVVDVAEEDGEVKFNWYVDGVEVHNAKTKPREEQYNSTYRVVSVLTVLHQDWLNGKEYKCKVSNKALPRPIEKTISKAKGQPREPQVYTLPPSRDELTKNQVSLTCLVKGFYPSDIAVEWESNGQPENNYKTTPMVLDSDGSFFLYSKLTVDKSRWQQGNVFSCSVMHEALHNHYTQESLSLSP
light: not shown
notes: copies: 2 + 2
Regarding B7, in test [1], binding was characterised by a dissociation constant (Kd) of 2000 nM.

B8: IL6R-BP504/IL6R-L (antibody, human IgG1, kappa, name in EU numbering)
heavy: QVQLQESGPGLVKPSETLSLTCAVSGHSISHDHAWSWVRQPPGEGLEWIGFISYSGITNYNPSLQGRVTISRDNSKNTLYLQMNSLRAEDTAVYYCARSLARTTAMDYWGEGTLVTVSSASTKGPSVFPLAPSSKSTSGGTAALGCLVKDYFPEPVTVSWNSGALTSGVHTFPAVLQSSGLYSLSSVVTVPSSSLGTQTYICNVNHKPSNTKVDKKVEPKSCDKTHTCPPCPAPDLLGDDSVFLFPPKPKDTLMISRTPEVTCVVIDVAEEDGPVKFNWYVDGVEVHNAKTKPREEQYNSTYRVVSVLTVLHQDWLNGKEYKCKVSNKALPAPIEKTISKAKGQPREPQVYTLPPSRDELTKNQVSLTCLVKGFYPSDIAVEWESNGQPENNYKTTPPVLDSDGSFFLYSKLTVDKSRWQQGNVFSCSVMHEALHNHYTQESLSLSP
light: not shown
notes: copies: 2 + 2
Turning to B8, the “KD(IIaH)/KD(IIb)” value in test [2] came to 658. Further, the “KD(IIaR)/KD(IIb)” value in test [3] came out at 18.5. Besides, the Kd in test [4] worked out at 15000 nM. For the same molecule, in test [5], the “KD(IIb) OF PARENT POLYPEPTIDE/KD(IIb) OF ALTERED POLYPEPTIDE” value amounted to 127. The “KD(IIaR) OF PARENT POLYPEPTIDE/KD(IIaR) OF ALTERED POLYPEPTIDE” value in test [6] was 2.4.
